Substrate in this series: CC1(C)C[C@H]2C=C(C(=O)O)[C@@H]3COC(=O)[C@]4(CO4)[C@]23C1
Description: purified protein, by the assay type. Conditions: 30 °C.

B1: wild-type PntM (Streptomyces arenae) (protein)
chain: MTDLPRLPFDNPDIMGIAPQMLALQKEGPIARVGTAGEDAWLVTRYDEVRTLLADRRLRLSNPNPQPSAKSAARAFMVALMAGDDHETEPARHAQMRSLLIPRFSTRRLRLMKTRIEHHVDELLDQLAASAPPVDLHRVLSFRLPTMVVCDLLGVPLADRERFGQWARGTFDQSDNEHSANTFQQVVDYMLELVARKRVEPGDDILSELIAEKDGALSDADIAHLGNAVLLFGYETTIVRIDLGTLLLLRNPVQRAQLAEDPGLAPAAVEEILRLGVGGKGSNALIPRYAHGDITVGETVIRTGDAVMLAIGAANYDDRAFPDGGLFDLTRVRPRSHLAFGHGARHCIGRTLARIELTAVFERLFRRLPDLRLAVPEESLRWQEHRITGGFDEIPVTF
Turning to B1, for the setting “other: Wild-type, pH 8.0”, the Km – broadly, the concentration of substrate that gives half-maximal velocity – stood at 36 ± 14 µM; the turnover number (kcat) (usually the number of substrate molecules converted per active site and unit of time at saturation) was determined as 0.03 s⁻¹; the kcat/Km – broadly, the second-order rate constant that governs catalysis at low substrate concentration – was 833 M⁻¹ s⁻¹.

B2: PntM M81C-BME (Streptomyces arenae; M81C) (protein)
chain: MTDLPRLPFDNPDIMGIAPQMLALQKEGPIARVGTAGEDAWLVTRYDEVRTLLADRRLRLSNPNPQPSAKSAARAFMVALCAGDDHETEPARHAQMRSLLIPRFSTRRLRLMKTRIEHHVDELLDQLAASAPPVDLHRVLSFRLPTMVVCDLLGVPLADRERFGQWARGTFDQSDNEHSANTFQQVVDYMLELVARKRVEPGDDILSELIAEKDGALSDADIAHLGNAVLLFGYETTIVRIDLGTLLLLRNPVQRAQLAEDPGLAPAAVEEILRLGVGGKGSNALIPRYAHGDITVGETVIRTGDAVMLAIGAANYDDRAFPDGGLFDLTRVRPRSHLAFGHGARHCIGRTLARIELTAVFERLFRRLPDLRLAVPEESLRWQEHRITGGFDEIPVTF
For the protein B2, under “other: M81C-BME, pH 8.0”, the Michaelis-Menten constant (Km) is 280 ± 110 µM, the kcat amounted to 0.00142 s⁻¹ and the kcat/Km worked out at 5 M⁻¹ s⁻¹.

B3: PntM M81A (Streptomyces arenae; M81A) (protein)
chain: MTDLPRLPFDNPDIMGIAPQMLALQKEGPIARVGTAGEDAWLVTRYDEVRTLLADRRLRLSNPNPQPSAKSAARAFMVALAAGDDHETEPARHAQMRSLLIPRFSTRRLRLMKTRIEHHVDELLDQLAASAPPVDLHRVLSFRLPTMVVCDLLGVPLADRERFGQWARGTFDQSDNEHSANTFQQVVDYMLELVARKRVEPGDDILSELIAEKDGALSDADIAHLGNAVLLFGYETTIVRIDLGTLLLLRNPVQRAQLAEDPGLAPAAVEEILRLGVGGKGSNALIPRYAHGDITVGETVIRTGDAVMLAIGAANYDDRAFPDGGLFDLTRVRPRSHLAFGHGARHCIGRTLARIELTAVFERLFRRLPDLRLAVPEESLRWQEHRITGGFDEIPVTF
On to B3, for which the Michaelis-Menten constant (Km) (other: M81A, pH 8.0) is 37 ± 6 µM.

B4: PntM F232A (Streptomyces arenae; F232A) (protein)
chain: MTDLPRLPFDNPDIMGIAPQMLALQKEGPIARVGTAGEDAWLVTRYDEVRTLLADRRLRLSNPNPQPSAKSAARAFMVALMAGDDHETEPARHAQMRSLLIPRFSTRRLRLMKTRIEHHVDELLDQLAASAPPVDLHRVLSFRLPTMVVCDLLGVPLADRERFGQWARGTFDQSDNEHSANTFQQVVDYMLELVARKRVEPGDDILSELIAEKDGALSDADIAHLGNAVLLAGYETTIVRIDLGTLLLLRNPVQRAQLAEDPGLAPAAVEEILRLGVGGKGSNALIPRYAHGDITVGETVIRTGDAVMLAIGAANYDDRAFPDGGLFDLTRVRPRSHLAFGHGARHCIGRTLARIELTAVFERLFRRLPDLRLAVPEESLRWQEHRITGGFDEIPVTF
For B4, where the note is “other: F232A, pH 8.0, n=1”, the Michaelis constant (Km) turned out to be 43 ± 5 µM, the kcat is 0.000583 s⁻¹ and the specificity constant (kcat/Km) came out at 13.7 M⁻¹ s⁻¹.

B5: PntM F232L (Streptomyces arenae; F232L) (protein)
chain: MTDLPRLPFDNPDIMGIAPQMLALQKEGPIARVGTAGEDAWLVTRYDEVRTLLADRRLRLSNPNPQPSAKSAARAFMVALMAGDDHETEPARHAQMRSLLIPRFSTRRLRLMKTRIEHHVDELLDQLAASAPPVDLHRVLSFRLPTMVVCDLLGVPLADRERFGQWARGTFDQSDNEHSANTFQQVVDYMLELVARKRVEPGDDILSELIAEKDGALSDADIAHLGNAVLLLGYETTIVRIDLGTLLLLRNPVQRAQLAEDPGLAPAAVEEILRLGVGGKGSNALIPRYAHGDITVGETVIRTGDAVMLAIGAANYDDRAFPDGGLFDLTRVRPRSHLAFGHGARHCIGRTLARIELTAVFERLFRRLPDLRLAVPEESLRWQEHRITGGFDEIPVTF
In the case of B5, under “other: F232L, pH 8.0”, the Km amounted to 12.0 ± 3 µM, the turnover number (kcat) amounted to 0.0015 s⁻¹ and the catalytic efficiency (kcat/Km) was found to be 125 M⁻¹ s⁻¹.

B6: PntM M81C (Streptomyces arenae; M81C) (protein)
chain: MTDLPRLPFDNPDIMGIAPQMLALQKEGPIARVGTAGEDAWLVTRYDEVRTLLADRRLRLSNPNPQPSAKSAARAFMVALCAGDDHETEPARHAQMRSLLIPRFSTRRLRLMKTRIEHHVDELLDQLAASAPPVDLHRVLSFRLPTMVVCDLLGVPLADRERFGQWARGTFDQSDNEHSANTFQQVVDYMLELVARKRVEPGDDILSELIAEKDGALSDADIAHLGNAVLLFGYETTIVRIDLGTLLLLRNPVQRAQLAEDPGLAPAAVEEILRLGVGGKGSNALIPRYAHGDITVGETVIRTGDAVMLAIGAANYDDRAFPDGGLFDLTRVRPRSHLAFGHGARHCIGRTLARIELTAVFERLFRRLPDLRLAVPEESLRWQEHRITGGFDEIPVTF
Turning to B6, for the setting “other: M81C, pH 8.0”, the Km stood at 19 ± 3 µM, the kcat is 0.00153 s⁻¹ and the kcat/Km amounted to 81.7 M⁻¹ s⁻¹.

B7: PntM M77S (Streptomyces arenae; M77S) (protein)
chain: MTDLPRLPFDNPDIMGIAPQMLALQKEGPIARVGTAGEDAWLVTRYDEVRTLLADRRLRLSNPNPQPSAKSAARAFSVALMAGDDHETEPARHAQMRSLLIPRFSTRRLRLMKTRIEHHVDELLDQLAASAPPVDLHRVLSFRLPTMVVCDLLGVPLADRERFGQWARGTFDQSDNEHSANTFQQVVDYMLELVARKRVEPGDDILSELIAEKDGALSDADIAHLGNAVLLFGYETTIVRIDLGTLLLLRNPVQRAQLAEDPGLAPAAVEEILRLGVGGKGSNALIPRYAHGDITVGETVIRTGDAVMLAIGAANYDDRAFPDGGLFDLTRVRPRSHLAFGHGARHCIGRTLARIELTAVFERLFRRLPDLRLAVPEESLRWQEHRITGGFDEIPVTF
Turning to B7, where the note is “other: M77S, pH 8.0”, the Km was determined as 19 ± 4 µM, the kcat came to 0.000317 s⁻¹ and the catalytic efficiency (kcat/Km) was found to be 16.7 M⁻¹ s⁻¹.
